B1: anti-NGF feline IgG1a, Fc variant S434Y, S254K (antibody, part only; not given: anti-NGF variable domains, light chain, not shown: another chain or arm of the molecule; small tags and cut ends)
Fc: PPEMLGGPSIFIFPPKPKDTLSIKRTPEVTCLVVDLGPDDSDVQITWFVDNTQVYTAKTSPREEQFNSTYRVVSVLPILHQDWLKGKEFKCKVNSKSLPSPIERTISKAKGQPHEPQVYVLPPAQEELSRNKVSVTCLIKSFHPPDIAVEWEITGQPEPENNYRTTPPQLDSDGTYFVYSKLSVDRSHWQRGNTYTCSVSHEALHYHHTQKSLTQSPGK
B2: anti-NGF feline IgG1a, Fc variant S434Y, L309E (antibody, part only; not given: Anti-NGF variable domains, not shown: another chain or arm of the molecule; small tags and cut ends)
Fc: PPEMLGGPSIFIFPPKPKDTLSISRTPEVTCLVVDLGPDDSDVQITWFVDNTQVYTAKTSPREEQFNSTYRVVSVLPIEHQDWLKGKEFKCKVNSKSLPSPIERTISKAKGQPHEPQVYVLPPAQEELSRNKVSVTCLIKSFHPPDIAVEWEITGQPEPENNYRTTPPQLDSDGTYFVYSKLSVDRSHWQRGNTYTCSVSHEALHYHHTQKSLTQSPGK
B3: anti-NGF feline IgG1a, Fc variant S434Y, E293K (antibody, part only; not given: anti-NGF variable domains, light chain, not shown: another chain or arm of the molecule; small tags and cut ends)
Fc: PPEMLGGPSIFIFPPKPKDTLSISRTPEVTCLVVDLGPDDSDVQITWFVDNTQVYTAKTSPRKEQFNSTYRVVSVLPILHQDWLKGKEFKCKVNSKSLPSPIERTISKAKGQPHEPQVYVLPPAQEELSRNKVSVTCLIKSFHPPDIAVEWEITGQPEPENNYRTTPPQLDSDGTYFVYSKLSVDRSHWQRGNTYTCSVSHEALHYHHTQKSLTQSPGK
B4: anti-NGF feline IgG1a, Fc variant S434Y, T289K (antibody, part only; not given: Anti-NGF variable domains, not shown: another chain or arm of the molecule; small tags and cut ends)
Fc: PPEMLGGPSIFIFPPKPKDTLSISRTPEVTCLVVDLGPDDSDVQITWFVDNTQVYTAKKSPREEQFNSTYRVVSVLPILHQDWLKGKEFKCKVNSKSLPSPIERTISKAKGQPHEPQVYVLPPAQEELSRNKVSVTCLIKSFHPPDIAVEWEITGQPEPENNYRTTPPQLDSDGTYFVYSKLSVDRSHWQRGNTYTCSVSHEALHYHHTQKSLTQSPGK
B5: anti-NGF feline IgG1a, Fc variant S434Y, L262E (antibody, part only; not given: Anti-NGF variable domains, not shown: another chain or arm of the molecule; small tags and cut ends)
Fc: PPEMLGGPSIFIFPPKPKDTLSISRTPEVTCEVVDLGPDDSDVQITWFVDNTQVYTAKTSPREEQFNSTYRVVSVLPILHQDWLKGKEFKCKVNSKSLPSPIERTISKAKGQPHEPQVYVLPPAQEELSRNKVSVTCLIKSFHPPDIAVEWEITGQPEPENNYRTTPPQLDSDGTYFVYSKLSVDRSHWQRGNTYTCSVSHEALHYHHTQKSLTQSPGK
B6: anti-NGF feline IgG1a, Fc variant S434F (antibody, part only; not given: anti-NGF variable domains, light chain, not shown: another chain or arm of the molecule; small tags and cut ends)
Fc: PPEMLGGPSIFIFPPKPKDTLSISRTPEVTCLVVDLGPDDSDVQITWFVDNTQVYTAKTSPREEQFNSTYRVVSVLPILHQDWLKGKEFKCKVNSKSLPSPIERTISKAKGQPHEPQVYVLPPAQEELSRNKVSVTCLIKSFHPPDIAVEWEITGQPEPENNYRTTPPQLDSDGTYFVYSKLSVDRSHWQRGNTYTCSVSHEALHFHHTQKSLTQSPGK
B7: anti-NGF feline IgG1a, Fc variant S434F, E380D (antibody, part only; not given: anti-NGF variable domains, light chain, not shown: another chain or arm of the molecule; small tags and cut ends)
Fc: PPEMLGGPSIFIFPPKPKDTLSISRTPEVTCLVVDLGPDDSDVQITWFVDNTQVYTAKTSPREEQFNSTYRVVSVLPILHQDWLKGKEFKCKVNSKSLPSPIERTISKAKGQPHEPQVYVLPPAQEELSRNKVSVTCLIKSFHPPDIAVDWEITGQPEPENNYRTTPPQLDSDGTYFVYSKLSVDRSHWQRGNTYTCSVSHEALHFHHTQKSLTQSPGK
B8: anti-NGF feline IgG1a, Fc variant S434Y, E293D (antibody, part only; not given: anti-NGF variable domains, light chain, not shown: another chain or arm of the molecule; small tags and cut ends)
Fc: PPEMLGGPSIFIFPPKPKDTLSISRTPEVTCLVVDLGPDDSDVQITWFVDNTQVYTAKTSPRDEQFNSTYRVVSVLPILHQDWLKGKEFKCKVNSKSLPSPIERTISKAKGQPHEPQVYVLPPAQEELSRNKVSVTCLIKSFHPPDIAVEWEITGQPEPENNYRTTPPQLDSDGTYFVYSKLSVDRSHWQRGNTYTCSVSHEALHYHHTQKSLTQSPGK
B9: anti-NGF feline IgG1a, Fc variant S434Y, T286D (antibody, part only; not given: anti-NGF variable domains, not shown: another chain or arm of the molecule; small tags and cut ends)
Fc: PPEMLGGPSIFIFPPKPKDTLSISRTPEVTCLVVDLGPDDSDVQITWFVDNTQVYDAKTSPREEQFNSTYRVVSVLPILHQDWLKGKEFKCKVNSKSLPSPIERTISKAKGQPHEPQVYVLPPAQEELSRNKVSVTCLIKSFHPPDIAVEWEITGQPEPENNYRTTPPQLDSDGTYFVYSKLSVDRSHWQRGNTYTCSVSHEALHYHHTQKSLTQSPGK
B10: anti-NGF feline IgG1a, Fc variant S434Y, Q347L (antibody, part only; not given: Anti-NGF variable domains, not shown: another chain or arm of the molecule; small tags and cut ends)
Fc: PPEMLGGPSIFIFPPKPKDTLSISRTPEVTCLVVDLGPDDSDVQITWFVDNTQVYTAKTSPREEQFNSTYRVVSVLPILHQDWLKGKEFKCKVNSKSLPSPIERTISKAKGQPHEPLVYVLPPAQEELSRNKVSVTCLIKSFHPPDIAVEWEITGQPEPENNYRTTPPQLDSDGTYFVYSKLSVDRSHWQRGNTYTCSVSHEALHYHHTQKSLTQSPGK
B11: anti-NGF feline IgG1a, Fc variant S434Y, K326D (antibody, part only; not given: anti-NGF variable domains, light chain, not shown: another chain or arm of the molecule; small tags and cut ends)
Fc: PPEMLGGPSIFIFPPKPKDTLSISRTPEVTCLVVDLGPDDSDVQITWFVDNTQVYTAKTSPREEQFNSTYRVVSVLPILHQDWLKGKEFKCKVNSDSLPSPIERTISKAKGQPHEPQVYVLPPAQEELSRNKVSVTCLIKSFHPPDIAVEWEITGQPEPENNYRTTPPQLDSDGTYFVYSKLSVDRSHWQRGNTYTCSVSHEALHYHHTQKSLTQSPGK
B12: anti-NGF feline IgG1a, Fc variant S434Y, L309V (antibody, part only; not given: anti-NGF variable domains, light chain, not shown: another chain or arm of the molecule; small tags and cut ends)
Fc: PPEMLGGPSIFIFPPKPKDTLSISRTPEVTCLVVDLGPDDSDVQITWFVDNTQVYTAKTSPREEQFNSTYRVVSVLPIVHQDWLKGKEFKCKVNSKSLPSPIERTISKAKGQPHEPQVYVLPPAQEELSRNKVSVTCLIKSFHPPDIAVEWEITGQPEPENNYRTTPPQLDSDGTYFVYSKLSVDRSHWQRGNTYTCSVSHEALHYHHTQKSLTQSPGK
B13: anti-NGF feline IgG1a, Fc variant S434Y, T286E (antibody, part only; not given: anti-NGF variable domains, light chain, not shown: another chain or arm of the molecule; small tags and cut ends)
Fc: PPEMLGGPSIFIFPPKPKDTLSISRTPEVTCLVVDLGPDDSDVQITWFVDNTQVYEAKTSPREEQFNSTYRVVSVLPILHQDWLKGKEFKCKVNSKSLPSPIERTISKAKGQPHEPQVYVLPPAQEELSRNKVSVTCLIKSFHPPDIAVEWEITGQPEPENNYRTTPPQLDSDGTYFVYSKLSVDRSHWQRGNTYTCSVSHEALHYHHTQKSLTQSPGK

The results in this text go back to patent US20250304650A1.

This experiment deals with feline FcRn (FCN-F82W3, Acrobiosystems) (feline). Description: SPR Carterra, IgG coupled, pH 6.0.
For the molecule B1, the equilibrium dissociation constant (Kd) amounted to 3.1 nM, the koff worked out at 0.00504 s⁻¹ and the kon is 1.61e+06 M⁻¹ s⁻¹.
For B2 the same measures were 4.1 nM, 0.00458 s⁻¹ and 1.13e+06 M⁻¹ s⁻¹.
The like results for B3 were, in that order, 4.1 nM, 0.00501 s⁻¹ and 1.22e+06 M⁻¹ s⁻¹.
For the molecule B4, the Kd was 3.6 nM, the off-rate constant (koff) was determined as 0.00559 s⁻¹ and the kon is 1.53e+06 M⁻¹ s⁻¹.
Molecule B5 gave a Kd of 3.3 nM, a dissociation rate constant (koff) of 0.00498 s⁻¹ and an on-rate (kon) of 1.51e+06 M⁻¹ s⁻¹.
The like results for B6 were, in that order, 4.2 nM, 0.00718 s⁻¹ and 1.73e+06 M⁻¹ s⁻¹.
In turn, B7 returned a Kd of 3.3 nM, a koff of 0.00583 s⁻¹ and a kon of 1.77e+06 M⁻¹ s⁻¹.
Turning to B8, the equilibrium dissociation constant (Kd) is 3.4 nM, the koff came out at 0.00534 s⁻¹ and the kon was 1.57e+06 M⁻¹ s⁻¹.
As for B9, the dissociation constant Kd amounted to 2.9 nM, the dissociation rate constant (koff) turned out to be 0.00371 s⁻¹ and the on-rate (kon) stood at 1.28e+06 M⁻¹ s⁻¹.
For B10 the same measures were 3.4 nM, 0.00667 s⁻¹ and 1.98e+06 M⁻¹ s⁻¹.
The like results for B11 were, in that order, 4 nM, 0.00549 s⁻¹ and 1.38e+06 M⁻¹ s⁻¹.
Consider B12, for which the dissociation constant Kd is 1.8 nM, the koff is 0.004 s⁻¹ and the kon was found to be 2.21e+06 M⁻¹ s⁻¹.
For B13 the same measures were 3.6 nM, 0.00345 s⁻¹ and 965000 M⁻¹ s⁻¹.

The term Kd denotes the free concentration of one partner at which half of the binding sites on the other are occupied at equilibrium, for simple one-to-one binding. Low readings indicate a tighter complex, high ones a looser complex. As a reminder, the koff is the first-order rate constant of dissociation. A low value points to slow dissociation. In general, kon refers to the second-order rate constant of association.
